Measurements reported in patent publication US20100280227A1 (Genentech, published 2010).
Values joined by “and” are separate entries in the source; they are usually repeats but may differ in a detail not shown here. Equal entries are not always repeated. Where two headings read alike, the source gives them in different places.

T1: mouse BR3 extracellular domain (mouse, UniProt Q9D8D0 1-64)
T1 construct: also called mBR3-ECD; mBR-ECD
T1 sequence: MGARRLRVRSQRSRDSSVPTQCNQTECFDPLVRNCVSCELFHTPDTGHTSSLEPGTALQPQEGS

B1: Hu2.1-46 Fab (Fab, V domains shown)
VH: EVQLVESGGGLVQPGGSLRLSCAASGDSITRGYWNWVRQAPGKGLEWVGYINYSGTTYYNPSLKSRFTISRDTSKNTFYLQMNSLRAEDTAVYYCANSNFYGAMDYWGQGTLVTVSS
VL: DIQMTQSPSSLSASVGDRVTITCRASESVDDYGISFMHWYQQKPGKAPKLLIYRASDLESGVPSRFSGSGSGTDFTLTISSLQPEDFATYYCQQTSKDPWTFGQGTKVEIKR
notes: Fab
B2: Hu2.1-RL Fab (Fab, V domains shown)
VH: EVQLVESGGGLVQPGGSLRLSCAASGDSITRGYWNWVRQAPGKGLEWVGYINYSGTTYYNPSLKSRFTISRDTSKNTLYLQMNSLRAEDTAVYYCATPHTYGAMDYWGQGTLVTVSS
VL: DIQMTQSPSSLSASVGDRVTITCRASESVDDYGISFMHWYQQKPGKAPKLLIYRASDLESGVPSRFSGSGSGTDFTLTISSLQPEDFATYYCQQTSKDPWTFGQGTKVEIKR
notes: Fab
B3: Hu2.1-40 Fab (Fab, V domains shown)
VH: EVQLVESGGGLVQPGGSLRLSCAASGDSITRGYWNWVRQAPGKGLEWVGYINYSGTTYYNPSLKSRFTISRDTSKNTFYLQMNSLRAEDTAVYYCATTLPYGAMDYWGQGTLVTVSS
VL: DIQMTQSPSSLSASVGDRVTITCRASESVDDYGISFMHWYQQKPGKAPKLLIYRASDLESGVPSRFSGSGSGTDFTLTISSLQPEDFATYYCQQTSKDPWTFGQGTKVEIKR
notes: Fab
B4: Hu2.1-94 Fab (Fab, V domains shown)
VH: EVQLVESGGGLVQPGGSLRLSCAASGDSITRGYWNWVRQAPGKGLEWVGYINYSGTTYYNPSLKSRFTISRDTSKNTLYLQMNSLRAEDTAVYYCATSHNTGEMDYWGQGTLVTVSS
VL: DIQMTQSPSSLSASVGDRVTITCRASESVDDYGISFMHWYQQKPGKAPKLLIYRASDLESGVPSRFSGSGSGTDFTLTISSLQPEDFATYYCQQTSKDPWTFGQGTKVEIKR
notes: Fab
B5: Hu2.1-30 Fab (Fab, V domains shown)
VH: EVQLVESGGGLVQPGGSLRLSCAASGDSITRGYWNWVRQAPGKGLEWVGYINYSGTTYYNPSLKSRFTISRDTSKNTFYLQMNSLRAEDTAVYYCANLNYYGAMDYWGQGTLVTVSS
VL: DIQMTQSPSSLSASVGDRVTITCRASESVDDYGISFMHWYQQKPGKAPKLLIYRASDLESGVPSRFSGSGSGTDFTLTISSLQPEDFATYYCQQTSKDPWTFGQGTKVEIKR
notes: Fab
B6: Hu2.1-40L Fab (Fab, V domains shown)
VH: EVQLVESGGGLVQPGGSLRLSCAASGDSITRGYWNWVRQAPGKGLEWVGYINYSGTTYYNPSLKSRFTISRDTSKNTLYLQMNSLRAEDTAVYYCATTLPYGAMDYWGQGTLVTVSS
VL: DIQMTQSPSSLSASVGDRVTITCRASESVDDYGISFMHWYQQKPGKAPKLLIYRASDLESGVPSRFSGSGSGTDFTLTISSLQPEDFATYYCQQTSKDPWTFGQGTKVEIKR
notes: Fab
B7: Hu11G9-36 Fab (Fab, V domains shown)
VH: EVQLVESGGGLVQPGGSLRLSCAASGDSINFGYWNWVRQAPGKGLEWVGYISYSGSTYYNPSLKSRFTISRDTSKNTFYLQMNSLRAEDTAVYYCAALNDLFLYFDVWGQGTLVTVSS
VL: DIQMTQSPSSLSASVGDRVTITCRSSQSLVHSNGNTYLHWYQQKPGKAPKLLIYKVSNRFSGVPSRFSGSGSGTDFTLTISSLQPEDFATYYCSQSTHVPPFTFGQGTKVEIKR
notes: Fab
B8: Hu11G9-46 IgG (antibody, V domains shown)
VH: EVQLVESGGGLVQPGGSLRLSCAASGDSITSGYWNWVRQAPGKGLEWVGYISYSGSTYYNPSLKSRFTISRDTSKNTFYLQMNSLRAEDTAVYYCAGLNDLYLYFDVWGQGTLVTVSS
VL: DIQMTQSPSSLSASVGDRVTITCRSSQSLVHSNGNTYLHWYQQKPGKAPKLLIYKVSNRFSGVPSRFSGSGSGTDFTLTISSLQPEDFATYYCSQSTHVPPFTFGQGTKVEIKR
notes: humanized IgG
B9: Hu11G9-36 IgG (antibody, V domains shown)
VH: EVQLVESGGGLVQPGGSLRLSCAASGDSINFGYWNWVRQAPGKGLEWVGYISYSGSTYYNPSLKSRFTISRDTSKNTFYLQMNSLRAEDTAVYYCAALNDLFLYFDVWGQGTLVTVSS
VL: DIQMTQSPSSLSASVGDRVTITCRSSQSLVHSNGNTYLHWYQQKPGKAPKLLIYKVSNRFSGVPSRFSGSGSGTDFTLTISSLQPEDFATYYCSQSTHVPPFTFGQGTKVEIKR
notes: humanized IgG
B10: chimeric 9.1 Fab (Fab, V domains shown)
VH: EVKLVESGGGLVQPGGSLRLSCAISGFTVTAYYMSWVRQPPGKALEWLGFIRDKANGYTTEYNPSVKGRFTISRDNSQSIFYLQMNTLRAEDSATYYCAQVRRALDYWGQGTTVTVSA
VL: DIVMSQSPSSLAVSVGEKVTMSCKSSQSLLYSSNQNNYLAWYQQKPGQSPKLLIYWASTRESGVPDRFTGSGSGTDFTLTISSVKAEDLAVYYCQQYYTYPYTFGGGT
notes: Fab with murine variable domains; also called Ch 9.1 Fab
B11: 3 (Fab, V domains shown)
VH: EVQLVESGGGLVQPGGSLRLSCAASGFTISSNSIHWVRQAPGKGLEWVAWVTPSGGSTDYADSVKGRFTISADTSKNTAYLQMNSLRAEDTAVYYCARRVCYNRLGVCAGGMDYWGQGTLVTVSS
VL: DIQMTQSPSSLSASVGDRVTITCRASQDVSTAVAWYQQKPGKAPKLLIYSASFLYSGVPSRFSGSGSGTDFTLTISSLQPEDFATYYCQQSRISPPTFGQGTKVEIKR
notes: also called V3-3
B12: 19 (Fab, V domains shown)
VH: EVQLVESGGGLVQPGGSLRLSCAASGFSIARSSIHWVRQAPGKGLEWVAWILPSAGSTDYADSVKGRFTISADTSKNTAYLQMNSLRAEDTAVYYCARRVCYNRLGVCAGGMDYWGQGTLVTVSS
VL: DIQMTQSPSSLSASVGDRVTITCRASQDVSTAVAWYQQKPGKAPKLLIYSASFLYSGVPSRFSGSGSGTDFTLTISSLQPEDFATYYCQQSRITPPTFGQGTKVEIKR
notes: also called V3-19
B13: 34 (Fab, V domains shown)
VH: EVQLVESGGGLVQPGGSLRLSCAASGFSISNHSIHWVRQAPGKGLEWVAWVTPSYGITDYADSVKGRFTISADTSKNTAYLQMNSLRAEDTAVYYCARRVCYNRLGVCAGGMDYWGQGTLVTVSS
VL: DIQMTQSPSSLSASVGDRVTITCRASQDVSTAVAWYQQKPGKAPKLLIYSASFLYSGVPSRFSGSGSGTDFTLTISSLQPEDFATYYCQQSRTTPPTFGQGTKVEIKR
notes: also called V3-34
B14: 24 (Fab, V domains shown)
VH: EVQLVESGGGLVQPGGSLRLSCAASGFSIRSISIHWVRQAPGKGLEWVAWITPFNGTTDYADSVKGRFTISADTSKNTAYLQMNSLRAEDTAVYYCARRVCYNRLGVCAGGMDYWGQGTLVTVSS
VL: DIQMTQSPSSLSASVGDRVTITCRASQDVSTAVAWYQQKPGKAPKLLIYSASFLYSGVPSRFSGSGSGTDFTLTISSLQPEDFATYYCQQSLITPPTFGQGTKVEIKR
notes: also called V3-24
B15: 9 (Fab, V domains shown)
VH: EVQLVESGGGLVQPGGSLRLSCAASGFTISSNSIHWVRQAPGKGLEWVAWITPSDGNTDYADSVKGRFTISADTSKNTAYLQMNSLRAEDTAVYYCARRVCYNRLGVCAGGMDYWGQGTLVTVSS
VL: DIQMTQSPSSLSASVGDRVTITCRASQDVSTAVAWYQQKPGKAPKLLIYSASFLYSGVPSRFSGSGSGTDFTLTISSLQPEDFATYYCQQSHNTPPTFGQGTKVEIKR
notes: also called V3-9
B16: 16 (Fab, V domains shown)
VH: EVQLVESGGGLVQPGGSLRLSCAASGFSISSNSIHWVRQAPGKGLEWVAWITPTHGSTDYADSVKGRFTISADTSKNTAYLQMNSLRAEDTAVYYCARRVCYNRLGVCAGGMDYWGQGTLVTVSS
VL: DIQMTQSPSSLSASVGDRVTITCRASQDVSTAVAWYQQKPGKAPKLLIYSASFLYSGVPSRFSGSGSGTDFTLTISSLQPEDFATYYCQQSRITPPTFGQGTKVEIKR
notes: also called V3-16
B17: 5 (Fab, V domains shown)
VH: EVQLVESGGGLVQPGGSLRLSCAASGFTISSSSIHWVRQAPGKGLEWVAWITPGHGSTDYADSVKGRFTISADTSKNTAYLQMNSLRAEDTAVYYCARRVCYNRLGVCAGGMDYWGQGTLVTVSS
VL: DIQMTQSPSSLSASVGDRVTITCRASQDVSTAVAWYQQKPGKAPKLLIYSASFLYSGVPSRFSGSGSGTDFTLTISSLQPEDFATYYCQQSRITPPTFGQGTKVEIKR
notes: also called V3-5
B18: 27 (Fab, V domains shown)
VH: EVQLVESGGGLVQPGGSLRLSCAASGFTISSNSIHWVRQAPGKGLEWVAWITPSDGNTDYADSVKGRFTISADTSKNTAYLQMNSLRAEDTAVYYCARRVCYNHLGVCAGGMDYWGQGTLVTVSS
VL: DIQMTQSPSSLSASVGDRVTITCRASQDVSTAVAWYQQKPGKAPKLLIYSASFLYSGVPSRFSGSGSGTDFTLTISSLQPEDFATYYCQQSRMSPPTFGQGTKVEIKR
notes: also called V3-27

Assays:
[1] = target: T2, human BR3 extracellular domain (human, UniProt Q96RJ3 1-61); assay: SPR, BR3 ECD on chip;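 further: Anti-BR3 antibodies passed over the chip at high flow in PBS with 0.05% polysorbate 20, on and off rates fitted together globally to a 1:1 binding model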
T2 construct: biotinylated where used as tracer; also called hBR3-ECD; BR3-ECD
Description: After coupling, unoccupied sites on the chip were blocked by injecting 20 μl of 1M ethanolamine, pH 8.5. The running buffer was PBS containing 0.05% polysorbate 20. […] The binding surface was regenerated by injecting 20-30 μl of 10 mM glycine.HCl (pH 1.5). […] Data were analyzed using a 1:1 binding model using global fitting. The association and dissociation rate constants were fitted simultaneously (BIAevaluation software).
A high flow rate was used in order to minimize mass transport effects.

[2] = target: T3, variant human BR3-Fc fusion; assay: SPR, vBR3-Fc on chip;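 further: Anti-BR3 antibodies passed over chip-bound BR3-Fc in PBS with 0.05% polysorbate 20, on and off rates fitted together globally to a 1:1 binding model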
T3 construct: produced in CHO cells; also called vBR3-Fc; vhBR3-Fc

[3] = target: T2, human BR3 extracellular domain; assay: phage competition ELISA
[4] = target: T1, mouse BR3 extracellular domain; assay: phage competition ELISA

Binder	Kd [1]	koff [1]	kon [1]	Kd [2]	koff [2]	kon [2]	Kd ([2]; 140 RU BR3-Fc immobilized)	Kd ([2]; 380 RU BR3-Fc immobilized)	IC50 [3]	IC50 [4]
B1	0.27 nM	0.000693 s⁻¹	2.55e+06 M⁻¹ s⁻¹	0.13 nM	0.000257 s⁻¹	1.96e+06 M⁻¹ s⁻¹	–	–	–	–
B2	10 nM	0.00176 s⁻¹	180000 M⁻¹ s⁻¹	11.2 nM	0.00139 s⁻¹	120000 M⁻¹ s⁻¹	–	–	–	–
B3	8.67 nM	0.000923 s⁻¹	110000 M⁻¹ s⁻¹	3.2 nM	0.00123 s⁻¹	380000 M⁻¹ s⁻¹	–	–	–	–
B4	0.82 nM	0.00114 s⁻¹	1.39e+06 M⁻¹ s⁻¹	1.67 nM	0.000804 s⁻¹	480000 M⁻¹ s⁻¹	–	–	–	–
B5	0.08 nM and 0.059 nM	0.000311 s⁻¹ and 0.000232 s⁻¹	3.84e+06 M⁻¹ s⁻¹ and 3.94e+06 M⁻¹ s⁻¹	0.07 nM and 0.092 nM	0.000157 s⁻¹ and 0.000222 s⁻¹	2.18e+06 M⁻¹ s⁻¹ and 2.41e+06 M⁻¹ s⁻¹	–	–	–	–
B6	35.8 nM	0.00156 s⁻¹	40000 M⁻¹ s⁻¹	3.49 nM	0.00121 s⁻¹	350000 M⁻¹ s⁻¹	–	–	–	–
B7	0.7 nM and 0.65 nM	0.00105 s⁻¹ and 0.000954 s⁻¹	1.49e+06 M⁻¹ s⁻¹ and 1.47e+06 M⁻¹ s⁻¹	2.31 nM and 2.08 nM	0.00104 s⁻¹ and 0.000968 s⁻¹	450000 M⁻¹ s⁻¹ and 466000 M⁻¹ s⁻¹	–	–	–	–
B8	0.025 nM	4.2e-05 s⁻¹	1.66e+06 M⁻¹ s⁻¹	0.288 nM	0.000186 s⁻¹	648000 M⁻¹ s⁻¹	–	–	–	–
B9	0.024 nM	4.1e-05 s⁻¹	1.71e+06 M⁻¹ s⁻¹	0.4 nM	0.000231 s⁻¹	576000 M⁻¹ s⁻¹	–	–	–	–
B10	–	–	–	–	–	–	20 nM	21.8 nM	–	–
B11	–	–	–	–	–	–	–	–	1.3 nM	16.1 nM
B12	–	–	–	–	–	–	–	–	1.3 nM	1.8 nM
B13	–	–	–	–	–	–	–	–	0.3 nM	6.4 nM
B14	–	–	–	–	–	–	–	–	0.6 nM	23 nM
B15	–	–	–	–	–	–	–	–	11.6 nM	6.1 nM
B16	–	–	–	–	–	–	–	–	1.7 nM	16.8 nM
B17	–	–	–	–	–	–	–	–	2.5 nM	40.9 nM
B18	–	–	–	–	–	–	–	–	9.4 nM	1.4 nM
